Experimental data from patent US20240336691A1 (PROMETHEUS BIOSCIENCES, published 2024).
Substitutions are numbered along the chain they refer to. Values joined by “and” are separate entries in the source; they are usually repeats but may differ in a detail not shown here. Equal entries are not always repeated.

T1: TL1A in human blood (endogenous) (human, UniProt O95150 72-251, limits assumed)
T1 sequence (looked up): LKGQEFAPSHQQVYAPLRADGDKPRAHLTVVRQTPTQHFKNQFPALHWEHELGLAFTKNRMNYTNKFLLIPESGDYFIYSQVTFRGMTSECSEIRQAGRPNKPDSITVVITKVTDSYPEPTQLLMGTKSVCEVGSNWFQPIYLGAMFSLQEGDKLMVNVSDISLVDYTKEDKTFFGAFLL

T2: TL1A produced by cynomolgus monkey PBMCs in whole blood (cynomolgus monkey, UniProt G7PRK8 72-251)
T2 sequence: T1 sequence (looked up) with F39L, I78V

B1: A212 (antibody, human IgG1, V domains shown)
VH: QVQLVQSGAEVKKPGASVKVSCKASGFDIQDTYMHWVRQRPGQGLEWIGRIDPASGHTKYDPKFQVRATITTDTSTSTAYLELSSLRSEDTAVYYCARSGGLPDVWGQGTTVTVSS
VL: EIVLTQSPGTLSLSPGERATLSCRASSSVSYMYWYQQKPGQAPRPLIYATSNLASGIPDRFSGSGSGTDFTLTISRLEPEDFAVYYCQQWEGNPRTFGGGTKLEIK
B2: A147 (antibody, human IgG1, V domains shown)
VH: QVQLVQSGAEVKKPGASVKVSCKASGFDIQDTYMHWVKQRPGQGLEWMGRIEPASGHIKYDPKFQGRVTMTRDTSTSTVYMELSSLRSEDTAVYYCARSGGLPDWWGQGTTVTVSS
VL: B1 VL
B3: anti-TL1A antibody A219 (antibody, V domains shown)
VH: B1 VH with R38K, I48M, A68V, T72R, A79V
VL: B1 VL
B4: A219 (antibody, V domains shown)
VH: B1 VH with R38K, I48M, A68V, T72R, A79V
VL: B1 VL
B5: A217 (antibody, human IgG1, V domains shown)
VH: B2 VH with E52D, I58T, G66V, M70I, W105V
VL: B1 VL
B6: A220 (antibody, human IgG1, V domains shown)
VH: B1 VH with R38K, I48M, A68V, I70M, T72R
VL: B1 VL with L46W
B7: A213 (antibody, human IgG1, V domains shown)
VH: B1 VH with I48M, A68V, A79V, L81M
VL: B1 VL

Experiments:
[1] = biological target: T1, TL1A in human blood (endogenous); experiment: cell-based or functional assay
[2] = biological target: T2, TL1A produced by cynomolgus monkey …; experiment: cell-based or functional assay

Binder	% Inhibition at 1 nM Ig of interferon gamma release in human blood [1]	% Inhibition at 10 nM Ig of interferon gamma release in human blood [1]	mean IC50 for the inhibition of the IFN-γ response in monkey whole blood [2]
B1	46.8%	71.2%	
B2	51.3%	72.4%	
B3			1.54 nM and 289 ng/mL
B4	59.8%	75.2%	
B5	46%	72.2%	
B6	36.9%	63.2%	
B7	48.6%	69.8%	
